In the DeepSol protein solubility set:

assay: soluble on expression in E. coli; label from the status in PepcDB or PDB records

Row | Sequence | soluble on expression in E. coli
1 | MGKRLKSNARKSAVNKLVKKTDNRIKEEQRVIRTPKVDEQELKLVRAPKISSAMFMKYNTQLGPPFHVIVDTNFVNFAVKNRIDMFQGFMDCLFAKTIVYATDCVLAELEKVRRFKIALKVLKDPRVQRLKCEHKGTYADDCLVQRVTQHKCYIVATCDRDLKRRIRKIPGVPIMYIVNHRFSIERMPDAYGAPMN | not soluble
2 | MGKSYKEIIELLDCNQTTIWRNVKKYEEFGLDSLLQETRGGRNHAYMTVEEEKAFLARHLKATEAGEFVTIDALFQVYKKECG | not soluble
3 | MGKYTEQAKLAAVKEYCAGKAGLRDVAHRHDVDFSCLRQWVAAYQIHGPAALKEKRRQRYSDEFKLAVLKRMHDERLSLRQTAALFDIRQFGIINLWQRLFDEGALNASSKPPKKAGRPRKMTTPLPPVNSSPINDESRSRDELLAEVKQLRMEVDYLKKLDALVQKKQRIAQQKKRKSLEHHHHHH | not soluble
4 | MGLAQSHSRTPSRDPLPNDHQVMDVYEESGPRRGRKRKAAKGSEIEMKKVAKLNTCAYVYQKLFLQGENSDIVLAACGREWRVHKLYLKQTKFFESMFDGLWTESNSGRVQMEITDPNIDADGLNSVLGSLYHNEIEIDLDKIEGTVAAASYIVLDSVTDRCSEMMIEALSTKNAVRFYDVSTKYGLEKVREKSMEVLLHQFWKIMTDREKLNEVDRQLFVTLLNSPNLLIIEGEFDLYKVVKSWIYMREVPDCCKDDSPETFTQNASKFFKESKTSMFIKYADIFASLRIEQFLTCSETIKTVKSDALIPLSIVDEMTSALWSSLLENEESPKTLEMDDDEFFKRCIRLGRSLDSFPKCWRWIGFNFGVDLLLHVNDYSVCIKRNCLNQKAPYSVNLKSKHVLHYRLVICDSNGQILYDSGKTTWEMKPDEARTIYRMSEDLATQISVHFQYLIHQPICSTGHYVNKYLDDQNSTDDEDDEEEEDDDGDDEEDSS | not soluble
5 | MGLFDFFKKKSSSEKTPIEDGDKTVVKSEDTDDSAPGWEAIDAEFDRLYPDQPNPLHYGTIVKYMFGGPDPLDGISVYDAGDFWHFVSYGLSELYTKESTDSEYSGYGIELTFKLKKSTNDEEEIKNGCGLLQYVARYIFKTGKVVLPEEYIYMKQTVGIDIQQKSKLTGFLTVSDNLAKPLDTPHGKVEFVTLIGATDAELRSVYESETSKLEVRKLLQELGNQITDYNRQSLVLEHHHHHH | not soluble
6 | MGLKIGDIVSRKSYGSDILFKVVDIKYEKGRKIVVLKGICYRLEADAPETDLIVQPDSYVREYNARVNRAINEKLKSLNESLMREKTKKKFFRDAAKENNENFPRPGKVLHVDGDSDYLDTCMEEYRKLGMDAVGVYVKEKEQPLKIYNLLKEHKPDILVLTGHDGVIKSEKGYSDITNYRNSKYFVEAVREARRFDGNLDSLVIFAGACQSMFKKIIEAGANFASSPYRVLIHALDPVMVCEKIAFTSINQVISPQDVISKTITGVKGIGGIETRGKYRDGFPREPYNIK | soluble
7 | MGNQMSVPQRVEGQENEPEAETYQDNASALNGVPVVVSTHTVQHLEEVDLGISVKTDNVATSSPETTEISAVADANGKNLGKEAKPEAPAAKSRFFLMLSRPVPGRTGDQAADSSLGSVKLDVSSNKAPANKDPSESWTLPVAAGPGQDTDKTPGHAPAQDKALSAARDPTLLPPETGGAGGEAPSKPKDSSFFDKFFKLDKGQEKVPGDSQQEAKRAEHQDKVDEVPGLSGQSDDVPAGKDIVDGKEKEGQELGTADCSVPGDPEGLETAKDDSQAAAIAENNNSIMSFFKTLVSPNKAETKKDPEDTGAEKSPTTSADLKSDKANFTSQETQGAGKNSKGCNPSGHTQSVTTPEPAKEGTKEKSGPTSLPLGKLFWKKVVCESPVEIIKSKEVESALQTVDLNEGDAAPEPTEAKLKREESKPRTSLMAFLRQMSVKGDGGITHSEEINGKDSSCQTSDSTEKTITPPEPEPTGAPQKGKEGSSKDKKSAAEMNKQKSNKQEAKEPAQCTEQATVDTNSLQNGDKLQKRPEKRQQSLGGFFKGLGPKRMLDAQVQTDPVSIGPVGKSK | soluble
8 | MGNRLMTSGAQGTNAAVIRGAMRADPNLLTVILPQSLDRQPRESREQLEKVIHLVEHAENDHLSLAEASTLCNQAIVTRCQQLICFAFHDSHTLLETCRYAEDQHHLVTLFYFDLEHHHHHH | soluble
9 | MGQQLLSHQSVSSQWLANQSATSTLPLLDLSLLSGSDTERQAFLTALRHAARDVGFFYLTGHGIDTSLLRQIQILSRQFFALSDEEKLSIAMIRSPHFRGYNRAASEFTRGQPDWREQFDIGAERTPLPQIAGAPSWTRLQGPNQWPTALPELKPVLLQWQEEMTRMSLRLLRAFALALDLDEQAFDALYGDKPNEHIKLIRYPGREATQSGQGVGAHKDSGFLSFLLQDTQRGLQVEVEEGQWIDAVPREGTFVVNIGELLELASNGYLRATVHRVETPPAGIDRLSIAFFLGARLDAVVPLYPLSAALAAEARGPASDPHNPLFRDVGLNYLKGRLRSHPDVAERYYSDALCS | not soluble
10 | MGQVLPLVTRQGDRIAIVSGLRTPFARQATAFHGIPAVDLGKMVVGELLARSEIPAEVIEQLVFGQVVQMPEAPNIAREIVLGTGMNVHTDAYSVSRACATSFQAVANVAESLMAGTIRAGIAGGADSSSVLPIGVSKKLARVLVDVNKARTMSQRLKLFSRLRLRDLMPVPPAVAEYSTGLRMGDTAEQMAKTYGITREQQDALAHRSHQRAAQAWSDGKLKEEVMTAFIPPYKQPLVEDNNIRGNSSLADYAKLRPAFDRKHGTVTAANSTPLTDGAAAVILMTESRAKELGLVPLGYLRSYAFTAIDVWQDMLLGPAWSTPLALERAGLTMSDLTLIDMHEAFAAQTLANIQLLGSERFAREALGRAHATGEVDDSKFNVLGGSIAYGHPFAATGARMITQTLHELRRRGGGFGLVTACAAGGLGAAMVLEAE | soluble
11 | MGREVAESCVDTMLMEMVAMYSGRFYANKPELAARRIEAIGYQVGHQLSERYTMERPRFSDHLEAIKFICKDFWSEVFKKQIDNLKTNHRGTFVLQDNKFRWLSRVSIDPSSENETQDPSTPGESKAAQAVSMYLYFPCGIIRGVLSNLGIPCAVSADISSLPTCSFVIRVKA | not soluble
12 | MGRFLLVDKKAPNYENLIDKEMNEIYERVKKIDPNQNEFLQAFHEILYSLKPLFMEDPKYLPIIEMLSEPERLVQFRVCWIDDNGIQRKNRGFRVQFNSTLGIYKGGLRFHPSVNLSIVKFLGFEQIFKNSLTGLSMGGAKGGSDFDPKGKSDNEIMKFCQSFMNELYRHIGPRTDVPAGDIGVGGREIGYLFGQYKKIANSFNGTLTGKNEKWGGSILRTEATGYGLVYFVLEVLKSLNIQMDKQTAIVSGSGNVALYCVQKLLQLNVKVLTMSDSNGYIYEPNGFTNDDLNFIIELKEVRKGRIEEYLKHSSTAKYFPNEKPWNVKCTLAFPCATQNEIDLDDAKLLHKNGCILVGEGANMPSTIEAINYLKENKIILCPSKAANAGGVAISGLEMSQNFQFAKWTKETVDEKLKEIMKNIFISSSESALKYANNKYDLQVGANISGFLKVADSYIQQGL | soluble
13 | MGRFRRVLTTAVLTTLLVGGTAGWASASSASVPGGPLPGTAAWLADDFLGRELPDPGTATPAEVAAFFAGLSDVQRHRLAEDHPAVVGNLDGVPVHLRYEANAPAGDRVLAYDPRGRGTIARVAGDLENAAHVSVIVPGSDIDAETFDRTAQRAADLQAAAGDDTAVIAWAGYTTPSGIGPDLATGRLAEAGAERLARLTEGLDAAGLPDPSLFCHSYGSVVCGLAADDTDARDIVVMGSPGMRADDVGALGTDAHVWAAKSPDDWIDRVPNVEFLGLGHGADPTSPGFGATVLPADDVPAHDEYFTPGTSTLAAFAAIADGERPLEHHHHHH | not soluble
14 | MGRGRAKAKQTKVARELKYSSPQTDFQRLQRELSGTGTDRLDGDGPSDDDSWNDEDDWRR | not soluble
15 | MGRIRQTFIKRTGEELIEKFADKFTSDFEENKKAVEEVAMISTKPLRNRIAGYVTAKVKKMNALEHHHHHH | not soluble
16 | MGRKEMLQNGVQQVFYEEEWYPPISEAVKNLTVEQACWQPEGAASNTIWENVNHLLIFKERLLSRLHEDDTFVAPQNNDETFIQGGPNDDAAWQQTVKRTLQVHDALQSSLTALQEAELDQLSPSLPVWQQYMNILLHDAYHTGQIIQLRKLQGSWPTHRSYL | not soluble
